Here are results for 3 compounds from patent US6030602A, “Peptide conjugates for transfecting cells” (Hoffmann-La Roche Inc., priority 1996, dated 2000).

Common to all, as to format: cell-based
Data set [1] relates to suspension cell-line WEHI 231.7. Nature of the data set: Transfection with luciferase plasmid, compound of Example 1b or cationic lipids (Table 4). The conditions noted are these: for Luciferase activity: WEHI 231.7, 6 well plates, 2 μg DNA per well, 48 h, background subtracted, DOTAP/DOSPER at cationic lipid/DNA 5/1 (wt/wt). The method, then:
a) 1.0 mg of the compound obtained in Example 1b) was dissolved in trifluoroethanol and dried in vacuo. The film was then rehydrated with 1 ml of 10 mM Tris maleate buffer pH 6.
b) 10 μl of a plasmid DNA solution (1 mg/ml) were diluted with 190 μl of pure, sterile water. 100 μl of the product obtained in paragraph a) were added and gently mixed. The mixture was then added to cells.
Table 4: Transfection of various cell lines with the compound of Example 1b or cationic lipids. Cells grown in 6 well plates were transfected with a luciferase encoding plasmid (2 μg DNA per well) formulated as described earlier in this Example. Luciferase activity was measured 48 h later. Results are expressed as light units per mg of cell protein. Background was substracted from each measurement.
*)DOTAP (Avanti Polar Lipids Inc.) or DOSPER (BoehringerMannheim)
transfection complexes were prepared according to manufacturer's
instructions and were used at a cationic lipid/DNA ratio of 5/1 (wt/wt).

The next data set concerns LM. Nature of the data set: Transfection with luciferase plasmid, compound of Example 1b/DOPE or cationic lipids (Table 2). Conditions: 48 h after transfection, Example 1b mixed with DOPE per Example 2, DOTAP, Lipofectamine per manufacturer. The method, then:
(§1) a) 1.1 mg of the compound obtained in Example 1b) were solubilized in trifluoroethanol and mixed with 1.1 mg of dioleoylphosphatidyl-ethanolamine (DOPE) in chloroform. The mixture was dried in vacuo and the remaining film rehydrated with 1 ml of 30 mM Tris Cl buffer pH 8.5. […]
(§2) b) Plasmid DNA (10 μg) was diluted in 400 μl of 30 mM Tris Cl buffer pH 8.5. Then […] of the product obtain in paragraph a) were added and gently mixed. The mixture was then added to cells.
(§3) |Transfection of various cell lines with a mixture of the | compound of Example 1b and DOPE or cationic lipids. Cells were | transfected with a luciferase encoding plasmid formulated as described | earlier in this Example. Luciferase activity was measured 48 h after | transfection. Results are expressed as μ Units per well, | ^2) DOTAP and Lipofectamine transfection complexes were prepared
(§4) according to the manufacturer's instructions.

The test system of a further data set is C2E12. Described as above. Conditions: 48 h after transfection, Example 1b mixed with DOPE per Example 2, DOTAP, Lipofectamine per manufacturer. The method, then: as §1, §2, §3, §4
The next data set deals with LM tk-. The description is as above. The conditions noted are these: 48 h after transfection, Example 1b mixed with DOPE per Example 2, DOTAP, Lipofectamine per manufacturer. The method, then:
as §1, §2, §3, §4

The test system of a further data set is CHO K1. The description is as above. Conditions: 48 h after transfection, Example 1b mixed with DOPE per Example 2, DOTAP, Lipofectamine per manufacturer. The method, then:
as §1, §2, §3, §4

The next data set concerns HeLa. Described as above. Conditions: 48 h after transfection, Example 1b mixed with DOPE per Example 2, DOTAP, Lipofectamine per manufacturer. The method, then: as §1, §2, §3, §4
The test system of another data set is 293-EBNA. The description is as above. Conditions: 48 h after transfection, Example 1b mixed with DOPE per Example 2, DOTAP, Lipofectamine per manufacturer. The method, then:
as §1, §2, §3, §4

The next data set concerns various cell lines. As to the kind of experiment: Toxicity on cells at high doses of DNA and compound (Table 3 experiment). Conditions: formulated according to Example 2. The method, then:
a) 1.1 mg of the compound obtained in Example 1b) were solubilized in trifluoroethanol and mixed with 1.1 mg of dioleoylphosphatidyl-ethanolamine (DOPE) in chloroform. The mixture was dried in vacuo and the remaining film rehydrated with 1 ml of 30 mM Tris Cl buffer pH 8.5.
as §2
(§5) The effect of DNA dose on the transfection efficiency of various cell lines using the compound obtained in Example 1b formulated according to the example 2 is shown in Table 3.

The test system of a further data set is COS-1. Nature of the data set: Transfection with β-galactosidase plasmid, increasing DNA doses (Table 3). Conditions: mixture with DOPE, 48 h after transfection. The method, then:
as §1, §2, §5
(§6) |Transfection of various cell lines with a mixture of the | compound of Example lb and DOPE using increasing DNA doses. Cells
(§7) were transfected with a β-galactosidase encoding plasmid formulated […]
(§8) described earlier in this Example. β-galactosidase activity was […]
(§9) 48 h after transfection. Results are expressed as μ Units per well, […]

The subject of a further data set is 3T3. The description is as above. Conditions: mixture with DOPE, 48 h after transfection. The method, then:
as §1, §2, §5, §6, §7, §8, §9

In a further data set the test system is HepG2. The description is as above. Conditions: mixture with DOPE, 48 h after transfection. The method, then:
as §1, §2, §5, §6, §7, §8, §9

For the next data set, the system named is CV-1. The data set is described as above. Conditions: mixture with DOPE, 48 h after transfection. The method, then:
as §1, §2, §5, §6, §7, §8, §9

A further data set relates to 293 EBNA cells. Nature of the data set: Transfection of 293 EBNA cells with compound of Example 1b, polyethylenimine or a mixture thereof (Table 5). The conditions noted are these: 6 cm dishes, 1 μg DNA per well, 48 h. The method, then: a) 1.0 mg of the compound obtained in Example 1b) was dissolved in trifluoroethanol and dried in vacuo. The film was then rehydrated with 1 ml of 10 mM Tris maleate buffer pH 6. b) 10 μl of a plasmid DNA solution (1 mg/ml) were diluted with 200 μl of pure, sterile water. 39 μl of the product obtained in paragraph a) and 14 μl of an aqueous polyethylenimine solution (0.45 mg/ml) were added. The mixture was adjusted with water to 300 μl, gently mixed and then added to 292 EBNA cells. […]
c) 10 μl of a plasmid DNA solution (1 mg/ml) were diluted with 200 μl of pure, sterile water. 52 μl of the product obtained in paragraph a) were added and adjusted with water to 300 μl. The mixture was gently mixed and then added to 292 EBNA cells. […]
d) 10 μl of a plasmid DNA solution (1 mg/ml) were diluted with 200 μl of pure, sterile water. 56 μl of an aqueous polyethylenimine solution (0.45 mg/ml) were added and adjusted with water to 300 μl. The mixture was gently mixed and then added to 292 EBNA cells.
Transfection of 293 EBNA cells with the compound of Example
| 1b, polyethylenimine or a mixture thereof. Cells grown in 6 cm dishes | were transfected with a luciferase encoding plasmid (1 μg DNA per […]
formulated as described earlier in this Example. Luciferase activity […]
measured 48 h later. Results are expressed as relative light units per

With `CCCCCCCC/C=C\CCCCCCCC(=O)OCC(COC(=O)CCCCCCC/C=C\CCCCCCCC)NC(=O)C(CCCNCCCN)NCCCN` (stereo not drawn) [DOSPER], the Luciferase activity in data set [1] was 0 light units per mg of cell pro.

With `CCCCCCCC/C=C\CCCCCCCC(=O)OCC(C[N+](C)(C)C)OC(=O)CCCCCCC/C=C\CCCCCCCC` (stereo not drawn) [DOTAP, reference compound], the Luciferase activity is listed as 0 light units per mg of cell pro in [1]; 68614 μ Units per well in the data set with LM; 156947 μ Units per well in the data set with C2E12; 594518 μ Units per well in the data set on LM tk-; 814133 μ Units per well with CHO K1; 5409 μ Units per well with HeLa. The compound further showed a Luciferase activity in the data set on 293-EBNA of 706718 μ Units per well.

On to “compound of formula IIA wherein R^1 and R^2 are oleoyl and R^3 is the residue --(CH2)--CH(NH2)--CO-Ile-Gly-Ala-Val-Leu-Lys-Val-Leu-Thr-Thr-Gly-Leu-Pro-Ala-Leu-Ile-Ser-Trp-Ile-Lys-Arg-Lys-Arg-Gln-Gln-NH2 [Example 1b]”, for which the “Ability to transfect the suspension cell-line WEHI 231.7” value in [1] (compared with DOTAP and DOSPER, same transfection conditions) is “able to transfect the suspension cell-line WEHI 231.7, albeit at a low level”. Also, in the data set with various cell lines, the Toxicity on cells result is reported as “without any obvious toxicity”. Besides, the Luciferase activity in the data set with LM is 31685 μ Units per well; in the data set on C2E12, 563827 μ Units per well; with LM tk- it was 1712739 μ Units per well; with CHO K1, 1825019 μ Units per well; in the data set on HeLa it was 33497 μ Units per well; in the data set on 293-EBNA, 2343658 μ Units per well. Further, the Luciferase activity in the data set with 293 EBNA cells is recorded as 3.9 × 10^5 relative light units per dish. For the same compound, the Galactosidase activity in the data set on COS-1 (0.2 μg DNA) is given as 16325 μ Units per well; in the data set with COS-1 (0.5 μg DNA), 20545 μ Units per well; in the data set with COS-1 (1 μg DNA), 16005 μ Units per well; with COS-1 (2 μg DNA), 15740 μ Units per well; with 3T3 (0.2 μg DNA) it was 318 μ Units per well; in the data set on 3T3 (0.5 μg DNA) it was 451 μ Units per well. Moreover, the Galactosidase activity in the data set on 3T3 (1 μg DNA) turned out to be 1032 μ Units per well; in the data set on 3T3 (2 μg DNA), 1301 μ Units per well; in the data set with HepG2 (0.2 μg DNA) it was 2533 μ Units per well; in the data set on HepG2 (0.5 μg DNA), 7944 μ Units per well; with HepG2 (1 μg DNA) it was 8988 μ Units per well; in the data set with HepG2 (2 μg DNA), 13816 μ Units per well. Moreover, the Galactosidase activity was 2700 μ Units per well in the data set with CV-1 (0.2 μg DNA), 4440 μ Units per well in the data set with CV-1 (0.5 μg DNA), 9775 μ Units per well with CV-1 (1 μg DNA) and 20434 μ Units per well in the data set with CV-1 (2 μg DNA).
